Laboratory results reported in publication PMC11148020, “PPIA dictates NRF2 stability to promote lung cancer progression” (Nature Communications, 2024).

Molecular target: T1, Recombinant PPIA protein (PPIA WT) (human, UniProt P62937 1-165, 15N-labeled in the NMR experiment)
T1 construct: peptidylprolyl isomerase A (PPIA, CypA), called full-length PPIA for the co-crystal; free in solution for crystal and NMR; also called full-length PPIA; 15N-labeled PPIA; source: E. coli BL21 (DE3), purified (Ni-NTA; for crystallization also Superdex 75 gel filtration)
Assay: crystal structure; PPIA (50 mg/mL) incubated with PBM peptide (2 mM) at 4 °C for 2 h; hanging-drop co-crystallization, 25 mM Hepes, 25% PEG 3350, 5 mM TCEP, pH 7.5; 1.81 Å
Settings: both partners purified

T1 sequence (P62937 whole entry): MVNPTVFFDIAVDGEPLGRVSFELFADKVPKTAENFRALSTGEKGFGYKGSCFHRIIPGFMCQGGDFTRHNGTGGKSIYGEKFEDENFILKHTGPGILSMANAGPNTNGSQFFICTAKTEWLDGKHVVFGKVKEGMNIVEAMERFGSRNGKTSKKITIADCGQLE

binding result: binds
B1: NRF2 fragment PPIA-Binding Motif (PBM) peptide (peptide)
peptide: VAQVAPVD
notes: NRF2 residues 169-176, in the linker between the Neh4 and Neh5 domains; also called NRF2-PBM; source: synthetic peptide
